These are literature values, as cited in paper PMC7083049.

In general, Kd refers to the concentration at which binding is half-saturated.

In this data set the target is histone H4 (Homo sapiens) (UniProt P62805).

For “JMJD2A Tudor domains (from UniProt O75164)”, the Kd was 2000 nM.
